According to the PETadex activity labels (doi:10.1074/jbc.m303867200):

Assays:
Details in all cases: pH 8; 37 °C
p-NP-C12 = substrate: p-NP-C12
p-NP-C2 = substrate: p-NP-C2
p-NP-C3 = substrate: p-NP-C3
p-NP-C4 = substrate: p-NP-C4
p-NP-C6 = substrate: p-NP-C6

B1: unnamed (protein)
chain: MNNIWWQTKGQGNVHLVLLHGWGLNAEVWRCIDEELSSHFTLHLVDLPGFGRSRGFGALSLADMAEAVLQQAPDKAIWLGWSLGGLVASQIALTHPERVQALVTVASSPCFSARDEWPGIKPDVLAGFQQQLSDDFQRTVERFLALQTMGTETARQDARALKKTVLALPMPEVDVLNGGLEILKTVDLRQPLQNVSMPFLRLYGYLDGLVPRKVVPMLDKLWPHSESYIFAKAAHAPFISHPAEFCHLLVALKQRV
B1 showed a Km (p-NP-C12) of 600 µM, a kcat (p-NP-C12) of 1.5 s⁻¹ and a kcat/Km (p-NP-C12) of 2500 M⁻¹ s⁻¹. For the same protein, the Km (p-NP-C2) was 290 µM, the kcat (p-NP-C2) was 18.5 s⁻¹ and the kcat/Km (p-NP-C2) was 63800 M⁻¹ s⁻¹. The Km (p-NP-C3) was 350 µM, the kcat (p-NP-C3) was 13.1 s⁻¹ and the kcat/Km (p-NP-C3) was 37400 M⁻¹ s⁻¹. For the same protein, the Km (p-NP-C4) was 330 µM, the kcat (p-NP-C4) was 6.1 s⁻¹ and the kcat/Km (p-NP-C4) was 18500 M⁻¹ s⁻¹. It also gave a Km (p-NP-C6) of 250 µM, a kcat (p-NP-C6) of 4 s⁻¹ and a kcat/Km (p-NP-C6) of 16000 M⁻¹ s⁻¹.
